# Assay results: patent US6919434
# Target: the molecule itself
# Experiment: SDS-PAGE under reducing and non-reducing conditions (60 kD against 120 kD)
# Procedure: The two protein peaks with OCIF activity (peaks 6 and 7) were subjected to SDS-polyacrylamide gel electrophoresis under reducing and non-reducing conditions. Briefly, 20 μL of each peak fraction was concentrated under vacuum and dissolved in 1.5 μL of 10 mM Tris-HCl, pH 8, 1 mM EDTA, 2.5% SDS, 0.01% bromophenol blue, and incubated at 37° C. overnight under non-reducing conditions or under reducing conditions (with 5% of 2-mercaptoethanol). Each 1.0 μL of sample was then analyzed by SDS-polyacrylamide gel electrophoresis with a gradient gel of 10–15% acrylamide (Pharmacia Co.) and an electrophoresis-device (Fast System, Pharmacia Co.). The following molecular weight marker proteins were used to calculate molecular weight: phosphorylase b (94 kD), bovine serum albumin (67 kD), ovalbumin (43 kD), carbonic anhydrase (30 kD), trypsin inhibitor ([…]), and lactalbumin (14.4 kD). After electrophoresis, protein bands were visualized by silver stain using Phast Silver Stain Kit.
protein,measurement,value
"osteoclastogenesis inhibitory factor (OCIF) (other, Secreted glycoprotein, present as a 60 kD monomer and a 120 kD homodimer under non-reducing conditions; Natural OCIF from IMR-90 medium coated the plates in the hybridoma ELISA; Recombinant OCIF was the standard in the polyclonal EIA; Unaltered OCIF in 293/EBNA conditioned medium was used in the western blot; also called nOCIF; natural OCIF) ETFPPKYLHYDEETSHQLLCDKCPPGTYLKQHCTAKWKTVCAPCPDHYYTDSWHTSDECLYCSPVCKELQYVKQECNRTHNRVCECKEGRYLEIEFCLKHRSCPPGFGVVQAGTPERNTVCKRCPDGFFSNETSSKAPCRKHTNCSVFGLLLTQKGNATHDNICSGNSESTQKCGIDVTLCEEAFFRFAVPTKFTPNWLSVLVDNLPGTKVNAESVERIKRQHSSQEQTFQLLKLWKHQNKDQDIVKKIIQDIDLCENSVQRHIGHANLTFEQLRSLMESLPGKKVGAEDIEKTIKACKPSDQILKLLSLWRIKNGDQDTLKGLMHALKHSKTYHFPKTVTQSLKKTIRFLHSFTMYKLYQKLFLEMIGNQVQSVKISCL",binding result,binds
